Our source for the Kd values is patent publication US20260207798A1, “CYCLIC PEPTIDES AS PET IMAGING AGENTS OF GRANZYME B” (priority 2022, published 2026).

Bridge positions count the residues as written; N and C are the ends. Square brackets hold non-standard residues; d marks the D form. NEtAla = CCN[C@@H](C)C(=O)O; NMeA = CN[C@@H](C)C(=O)O

B1: Compound 60a (peptide)
peptide: {CH2CO}-FNFEDQSPHTWQPCG-NH2
modifications: thioether N-14
SMILES: C[C@@H](O)[C@@H]1NC(=O)[C@H](Cc2c[nH]cn2)NC(=O)[C@@H]2CCCN2C(=O)[C@H](CO)NC(=O)[C@H](CCC(N)=O)NC(=O)[C@H](CC(=O)O)NC(=O)[C@H](CCC(=O)O)NC(=O)[C@H](Cc2ccccc2)NC(=O)[C@H](CC(N)=O)NC(=O)[C@H](Cc2ccccc2)NC(=O)CSC[C@@H](C(=O)NCC(N)=O)NC(=O)[C@@H]2CCCN2C(=O)[C@H](CCC(N)=O)NC(=O)[C@H](Cc2c[nH]c3ccccc23)NC1=O
B2: Compound 72a (peptide)
peptide: {CH2CO}-FNFEDQS[NEtAla]DTWQPCG-NH2
modifications: thioether N-14
SMILES: CCN1C(=O)[C@H](CO)NC(=O)[C@H](CCC(N)=O)NC(=O)[C@H](CC(=O)O)NC(=O)[C@H](CCC(=O)O)NC(=O)[C@H](Cc2ccccc2)NC(=O)[C@H](CC(N)=O)NC(=O)[C@H](Cc2ccccc2)NC(=O)CSC[C@@H](C(=O)NCC(N)=O)NC(=O)[C@@H]2CCCN2C(=O)[C@H](CCC(N)=O)NC(=O)[C@H](Cc2c[nH]c3ccccc23)NC(=O)[C@H]([C@@H](C)O)NC(=O)[C@H](CC(=O)O)NC(=O)[C@@H]1C
B3: Compound 68a (peptide)
peptide: {CH2CO}-FNFEDQSPDTWQ[NEtAla]CG-NH2
modifications: thioether N-14
SMILES: CCN1C(=O)[C@H](CCC(N)=O)NC(=O)[C@H](Cc2c[nH]c3ccccc23)NC(=O)[C@H]([C@@H](C)O)NC(=O)[C@H](CC(=O)O)NC(=O)[C@@H]2CCCN2C(=O)[C@H](CO)NC(=O)[C@H](CCC(N)=O)NC(=O)[C@H](CC(=O)O)NC(=O)[C@H](CCC(=O)O)NC(=O)[C@H](Cc2ccccc2)NC(=O)[C@H](CC(N)=O)NC(=O)[C@H](Cc2ccccc2)NC(=O)CSC[C@@H](C(=O)NCC(N)=O)NC(=O)[C@@H]1C
B4: Compound 80a (peptide)
peptide: {CH2CO}-FNFEDQSALTWQPCG-NH2
modifications: thioether N-14
SMILES: CC(C)C[C@@H]1NC(=O)[C@H](C)NC(=O)[C@H](CO)NC(=O)[C@H](CCC(N)=O)NC(=O)[C@H](CC(=O)O)NC(=O)[C@H](CCC(=O)O)NC(=O)[C@H](Cc2ccccc2)NC(=O)[C@H](CC(N)=O)NC(=O)[C@H](Cc2ccccc2)NC(=O)CSC[C@@H](C(=O)NCC(N)=O)NC(=O)[C@@H]2CCCN2C(=O)[C@H](CCC(N)=O)NC(=O)[C@H](Cc2c[nH]c3ccccc23)NC(=O)[C@H]([C@@H](C)O)NC1=O
B5: Compound 67a (peptide)
peptide: {CH2CO}-FNFEDQSPDTWQ[NMeA]CG-NH2
modifications: thioether N-14
SMILES: C[C@@H](O)[C@@H]1NC(=O)[C@H](CC(=O)O)NC(=O)[C@@H]2CCCN2C(=O)[C@H](CO)NC(=O)[C@H](CCC(N)=O)NC(=O)[C@H](CC(=O)O)NC(=O)[C@H](CCC(=O)O)NC(=O)[C@H](Cc2ccccc2)NC(=O)[C@H](CC(N)=O)NC(=O)[C@H](Cc2ccccc2)NC(=O)CSC[C@@H](C(=O)NCC(N)=O)NC(=O)[C@H](C)N(C)C(=O)[C@H](CCC(N)=O)NC(=O)[C@H](Cc2c[nH]c3ccccc23)NC1=O
B6: Compound 79a (peptide)
peptide: {CH2CO}-FNFEDQSASTWQPCG-NH2
modifications: thioether N-14
SMILES: C[C@@H]1NC(=O)[C@H](CO)NC(=O)[C@H](CCC(N)=O)NC(=O)[C@H](CC(=O)O)NC(=O)[C@H](CCC(=O)O)NC(=O)[C@H](Cc2ccccc2)NC(=O)[C@H](CC(N)=O)NC(=O)[C@H](Cc2ccccc2)NC(=O)CSC[C@@H](C(=O)NCC(N)=O)NC(=O)[C@@H]2CCCN2C(=O)[C@H](CCC(N)=O)NC(=O)[C@H](Cc2c[nH]c3ccccc23)NC(=O)[C@H]([C@@H](C)O)NC(=O)[C@H](CO)NC1=O
B7: Compound 63a (peptide)
peptide: {CH2CO}-FNFEDQGPDTWQPCG-NH2
modifications: thioether N-14
SMILES: C[C@@H](O)[C@@H]1NC(=O)[C@H](CC(=O)O)NC(=O)[C@@H]2CCCN2C(=O)CNC(=O)[C@H](CCC(N)=O)NC(=O)[C@H](CC(=O)O)NC(=O)[C@H](CCC(=O)O)NC(=O)[C@H](Cc2ccccc2)NC(=O)[C@H](CC(N)=O)NC(=O)[C@H](Cc2ccccc2)NC(=O)CSC[C@@H](C(=O)NCC(N)=O)NC(=O)[C@@H]2CCCN2C(=O)[C@H](CCC(N)=O)NC(=O)[C@H](Cc2c[nH]c3ccccc23)NC1=O
B8: Compound 74a (peptide)
peptide: {CH2CO}-FNFEDQSAQTWQPCG-NH2
modifications: thioether N-14
SMILES: C[C@@H]1NC(=O)[C@H](CO)NC(=O)[C@H](CCC(N)=O)NC(=O)[C@H](CC(=O)O)NC(=O)[C@H](CCC(=O)O)NC(=O)[C@H](Cc2ccccc2)NC(=O)[C@H](CC(N)=O)NC(=O)[C@H](Cc2ccccc2)NC(=O)CSC[C@@H](C(=O)NCC(N)=O)NC(=O)[C@@H]2CCCN2C(=O)[C@H](CCC(N)=O)NC(=O)[C@H](Cc2c[nH]c3ccccc23)NC(=O)[C@H]([C@@H](C)O)NC(=O)[C@H](CCC(N)=O)NC1=O
B9: Compound 73a (peptide)
peptide: {CH2CO}-FNFEDQSAETWQPCG-NH2
modifications: thioether N-14
SMILES: C[C@@H]1NC(=O)[C@H](CO)NC(=O)[C@H](CCC(N)=O)NC(=O)[C@H](CC(=O)O)NC(=O)[C@H](CCC(=O)O)NC(=O)[C@H](Cc2ccccc2)NC(=O)[C@H](CC(N)=O)NC(=O)[C@H](Cc2ccccc2)NC(=O)CSC[C@@H](C(=O)NCC(N)=O)NC(=O)[C@@H]2CCCN2C(=O)[C@H](CCC(N)=O)NC(=O)[C@H](Cc2c[nH]c3ccccc23)NC(=O)[C@H]([C@@H](C)O)NC(=O)[C@H](CCC(=O)O)NC1=O
B10: Compound 78a (peptide)
peptide: {CH2CO}-FNFEDQSAFTWQPCG-NH2
modifications: thioether N-14
SMILES: C[C@@H]1NC(=O)[C@H](CO)NC(=O)[C@H](CCC(N)=O)NC(=O)[C@H](CC(=O)O)NC(=O)[C@H](CCC(=O)O)NC(=O)[C@H](Cc2ccccc2)NC(=O)[C@H](CC(N)=O)NC(=O)[C@H](Cc2ccccc2)NC(=O)CSC[C@@H](C(=O)NCC(N)=O)NC(=O)[C@@H]2CCCN2C(=O)[C@H](CCC(N)=O)NC(=O)[C@H](Cc2c[nH]c3ccccc23)NC(=O)[C@H]([C@@H](C)O)NC(=O)[C@H](Cc2ccccc2)NC1=O
B11: Compound 65a (peptide)
peptide: {CH2CO}-FNFEDQSPGTWQPCG-NH2
modifications: thioether N-14
SMILES: C[C@@H](O)[C@@H]1NC(=O)CNC(=O)[C@@H]2CCCN2C(=O)[C@H](CO)NC(=O)[C@H](CCC(N)=O)NC(=O)[C@H](CC(=O)O)NC(=O)[C@H](CCC(=O)O)NC(=O)[C@H](Cc2ccccc2)NC(=O)[C@H](CC(N)=O)NC(=O)[C@H](Cc2ccccc2)NC(=O)CSC[C@@H](C(=O)NCC(N)=O)NC(=O)[C@@H]2CCCN2C(=O)[C@H](CCC(N)=O)NC(=O)[C@H](Cc2c[nH]c3ccccc23)NC1=O
B12: Compound 77a (peptide)
peptide: {CH2CO}-FNFEDQSAATWQPCG-NH2
modifications: thioether N-14
SMILES: C[C@@H]1NC(=O)[C@H](C)NC(=O)[C@H](CO)NC(=O)[C@H](CCC(N)=O)NC(=O)[C@H](CC(=O)O)NC(=O)[C@H](CCC(=O)O)NC(=O)[C@H](Cc2ccccc2)NC(=O)[C@H](CC(N)=O)NC(=O)[C@H](Cc2ccccc2)NC(=O)CSC[C@@H](C(=O)NCC(N)=O)NC(=O)[C@@H]2CCCN2C(=O)[C@H](CCC(N)=O)NC(=O)[C@H](Cc2c[nH]c3ccccc23)NC(=O)[C@H]([C@@H](C)O)NC1=O
B13: Compound 70a (peptide)
peptide: {CH2CO}-LNFEDQSPDTWQPCG-NH2
modifications: thioether N-14
SMILES: CC(C)C[C@@H]1NC(=O)CSC[C@@H](C(=O)NCC(N)=O)NC(=O)[C@@H]2CCCN2C(=O)[C@H](CCC(N)=O)NC(=O)[C@H](Cc2c[nH]c3ccccc23)NC(=O)[C@H]([C@@H](C)O)NC(=O)[C@H](CC(=O)O)NC(=O)[C@@H]2CCCN2C(=O)[C@H](CO)NC(=O)[C@H](CCC(N)=O)NC(=O)[C@H](CC(=O)O)NC(=O)[C@H](CCC(=O)O)NC(=O)[C@H](Cc2ccccc2)NC(=O)[C@H](CC(N)=O)NC1=O

For this experiment, the target named is T1, human Granzyme B (human, UniProt P10144 21-247).
T1 construct: Captured on a Series S Streptavidin chip for SPR; also called hGranzyme B; GzmB
T1 sequence (P10144 21-247 limits assumed): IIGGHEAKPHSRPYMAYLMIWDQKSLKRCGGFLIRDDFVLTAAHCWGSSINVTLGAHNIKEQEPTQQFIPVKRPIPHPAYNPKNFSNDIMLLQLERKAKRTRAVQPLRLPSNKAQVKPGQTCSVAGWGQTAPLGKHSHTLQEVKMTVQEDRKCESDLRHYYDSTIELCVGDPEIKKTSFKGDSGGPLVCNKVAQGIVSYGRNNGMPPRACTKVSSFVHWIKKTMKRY
Nature of the experiment: SPR, Biacore 8k+, hGranzyme B captured on SA chip, single cycle kinetics, 1:1 model. The procedure: The kinetics of test peptide binding to human Granzyme B (hGranzyme B) was determined by SPR. All experiments were performed at 25° C. using the Biacore 8k+ instrument (Cytiva, Marlborough, MA). The Biacore 8k+ Insight Evaluation Software Version 3.0 was used to fit the data with a 1:1 binding model to determine the association rate constant kₐ (M⁻¹s⁻¹, where “M” ~equals molar and “s” ~equals seconds) and the dissociation rate constant kd (s⁻¹). These rate constants were used to calculate the equilibrium dissociation constant. KD (M)=kd/kₐ.
To measure the binding kinetics of peptides of interest, surfaces were prepared by a capture method to a Series S Streptavidin (SA) chip using a 1×HBS-EP+ running buffer (Cytiva). hGranzyme B was diluted to 10 μg/mL in IX HBS-EP+ and flowed over spot 2 of each flow cell on the chip at a flow rate of 10 ul/min for 20 s to achieve a level of capture of ~1100 RU. An unmodified spot 1 of each flow cell was used as a matrix binding control or reference surface. Binding kinetics were measured using single cycle kinetics at 25° C. by injecting 5 concentrations with 3-fold serial dilutions of test peptides from 0.01 μM to 1 μM. Compound dilutions were performed manually in a running buffer containing 1×HBS-EP+(Cytiva), and a final concentration of 2% DMSO. The interaction analyses over hGranzyme B, were performed using a 120 s association time and a 900 s dissociation time. All experiments were conducted at a flow rate of 50 μL/min with a data collection rate of 10 Hz.
Peptide dilution series included 2 zero concentration points (no compound) which were averaged and subtracted from the peptide concentration injection as DMSO control responses. Binding data acquired from the reference surface (matrix binding control) were subtracted from the binding data for hGranzyme B surface on the chip to determine specific binding. Next, the association phase data were solvent corrected to account for any signal fluctuation throughout the experiment due to subtle DMSO concentration differences. Corrected response data were analyzed using the Biacore 8k+ Evaluation Software Version 3.0 according to the manufacturer. SPR data for representative compounds of the disclosure are found in Table 8.
(In general: Surface plasmon resonance follows binding to a sensor surface in real time, without labels.)
On to B1, for which binding was characterised by a dissociation constant (Kd) of 6.1 nM.
The result for B2 reads 20.2 nM; that for B3, 15.6 nM; that for B4, 38.8 nM.
The result for B5 reads 12.4 nM; that for B6, 34.8 nM.
The result for B7 reads 7.1 nM; that for B8, 23.9 nM; that for B9, 21.3 nM.
As to B10, the Kd (usually the free concentration of one partner at which half of the binding sites on the other are occupied at equilibrium, for simple one-to-one binding) stood at 34.4 nM.
Regarding B11, the Kd stood at 11 nM.
On to B12, for which the Kd came to 29.2 nM.
As to B13, binding was characterised by a dissociation constant (Kd) of 18.5 nM. This Kd is about 1.6-fold lower than that of the molecule before.
